This note sets out measurements from patent US20240052036A1 (Merck Sharp & Dohme, published 2024).

The target in this assay is T1, recombinant human LAG-3 (rhLAG-3) (human, UniProt P18627 23-450, limits assumed).
T1 construct: also called CD223
T1 sequence (looked up): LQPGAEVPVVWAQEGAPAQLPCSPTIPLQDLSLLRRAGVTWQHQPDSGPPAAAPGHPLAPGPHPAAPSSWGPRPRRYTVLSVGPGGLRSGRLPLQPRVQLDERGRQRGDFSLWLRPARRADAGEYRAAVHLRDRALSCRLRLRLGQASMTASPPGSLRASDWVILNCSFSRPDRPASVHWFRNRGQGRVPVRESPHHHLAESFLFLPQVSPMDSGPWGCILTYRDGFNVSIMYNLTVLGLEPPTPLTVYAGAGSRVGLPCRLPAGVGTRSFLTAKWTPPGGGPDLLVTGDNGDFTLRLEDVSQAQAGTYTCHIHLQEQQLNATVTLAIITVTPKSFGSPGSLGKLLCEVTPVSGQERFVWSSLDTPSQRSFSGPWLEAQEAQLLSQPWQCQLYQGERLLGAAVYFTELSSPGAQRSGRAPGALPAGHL
The assay can be described thus: binding ELISA, immobilized rhLAG-3, 4-parameter fit, relative potency. As to the method:
The potency assay assesses anti-LAG3 activity in Formulation A through anti-LAG3 binding to immobilized recombinant human LAG-3 (rhLAG-3). Dose response curves were generated by using serial dilutions of anti-LAG3 reference material and test samples. […] Relative potency was calculated by applying Parallel Line Analysis of dose-response curves in SoftMax® Pro. Potency of a test sample was reported as geometric mean potency relative to the reference material with a geometric standard deviation and 95% confidence interval.
For orientation: ELISA stands for enzyme-linked immunosorbent assay.

B1: anti-LAG3 antibody (SEQ ID NOs: 35 and 57, light and heavy chains) (antibody, human IgG4 S228P, kappa, V domains shown)
VH: QMQLVQSGPEVKKPGTSVKVSCKASGYTFTDYNVDWVRQARGQRLEWIGDINPNDGGTIYAQKFQERVTITVDKSTSTAYMELSSLRSEDTAVYYCARNYRWFGAMDHWGQGTTVTVSS
VL: DIVMTQTPLSLSVTPGQPASISCKASQSLDYEGDSDMNWYLQKPGQPPQLLIYGASNLESGVPDRFSGSGSGTDFTLKISRVEAEDVGVYYCQQSTEDPRTFGGGTKVEIKR
notes: Tested in Formulation A (25 mg/mL antibody, 50 mg/mL sucrose, 0.2 mg/mL polysorbate 80, 10 mM histidine pH 5.8, 70 mM L-arginine-HCl); also called Ab6; anti-LAG3 drug product
Take B1: the binding result is reported as “binds”.
